# Reference: patent publication US20240409645A1 (DUALYX, published 2024)
# T1: mouse common cytokine receptor γ-chain (IL-2Rγ) (mouse, UniProt P34902 23-263, limits assumed)
# T1 construct: Recombinant mouse IL-2Rγ protein; also called mo IL-2R; mouse IL-2R gamma
# T1 sequence (looked up): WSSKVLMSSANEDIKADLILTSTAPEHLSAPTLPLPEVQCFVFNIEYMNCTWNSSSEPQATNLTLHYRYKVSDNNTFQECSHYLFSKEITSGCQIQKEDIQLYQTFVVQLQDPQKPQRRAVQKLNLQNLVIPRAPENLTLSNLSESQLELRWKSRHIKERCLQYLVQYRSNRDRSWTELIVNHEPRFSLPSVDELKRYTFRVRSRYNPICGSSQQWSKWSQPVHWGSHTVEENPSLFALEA
# T2: human common cytokine receptor γ-chain (IL-2Rγ) (human, UniProt P31785 23-262, limits assumed)
# T2 construct: Recombinant human IL-2Rγ protein, coated (ELISA) or amine-coupled to a CM5 chip (SPR); also called hu IL-2R; CD132
# T2 sequence: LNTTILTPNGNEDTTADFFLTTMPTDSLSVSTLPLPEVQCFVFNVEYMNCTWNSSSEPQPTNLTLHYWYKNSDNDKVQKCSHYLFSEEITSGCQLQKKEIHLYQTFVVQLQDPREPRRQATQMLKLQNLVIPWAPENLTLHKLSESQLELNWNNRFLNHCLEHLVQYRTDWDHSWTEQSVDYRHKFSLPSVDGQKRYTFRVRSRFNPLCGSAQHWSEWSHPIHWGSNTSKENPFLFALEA
# How the values were obtained:
# [1] = target: T1, mouse common cytokine receptor γ-chain …; assay: P.E. binding ELISA
# Protocol: (§1) In a binding ELISA, human or mouse IL-2Rα, IL-2Rβ and IL-2Rγ proteins were coated directly on maxisorp microtiter plates overnight at 4° C. Free binding sites were blocked using 4% Marvel in PBS for 1 hour. Next, 1:5 dilution of P.E. in 1% Marvel/PBS were added to wells and incubated for 1 hour. […] Binding specificity was determined based on O.D. at 450 nm values compared to negative controls.
# [2] = target: T2, human common cytokine receptor γ-chain …; assay: P.E. binding ELISA
# Protocol: as §1
# [3] = target: T1, mouse common cytokine receptor γ-chain …; assay: P.E. off-rate SPR
# Protocol: (§2) SPR was performed to determine dissociation rates using Biacore 3000 instrument (GE Healthcare). Briefly, human and mouse IL-2R proteins were immobilized on carboxylmethyl dextran sensor chip (CM5) at approximately 2500 RUs using amine coupling in acetate buffer (GE Healthcare). The VHH-containing P.E. were loaded with a flow rate of 30 uL/min and the off-rates were measured over a 120s period.
# [4] = target: T2, human common cytokine receptor γ-chain …; assay: P.E. off-rate SPR
# Protocol: as §2
Binder,PE binding ELISA OD [1],PE binding ELISA OD [2],koff [3],koff [4]
"FJ1427_P035MP07B11 (VHH, tested as periplasmic extract; also called Clone nr) VHH: QVQLVESGGGLVQAGGSLRLSCAASGRALSRLAMGWFRQAPGKEREFVVASSWGDDTFYADSVEGRFTFSRDNAKSTVYLQMNSLQPGDTAVYYCAAAPTSFATTAYSSSNSYAYWGQGTQVTVPS",0.246 OD450 nm,1.25 OD450 nm,0.0114 s⁻¹,0.00214 s⁻¹
"FJ1427_P035MP07C01 (VHH, tested as periplasmic extract; also called Clone nr) VHH: QVQLVESGGGLVQAGDSLRLSCVASGRTLSRCAMGWFRKAPGKEREYVAISSWGGDTFYEDSVEGRFTFSRDNAKNTVYLQMNSLRPEDTAVYYCAAAPTSFATTAYSSSNSYAYWGQGTQVTVSS",0.923 OD450 nm,0.945 OD450 nm,0.00694 s⁻¹,0.00113 s⁻¹
"FJ1427_P035MP07C03 (VHH, tested as periplasmic extract; also called Clone nr) VHH: EVQLVESGGGLVQAGGSLRLSCAASGRTLSRYAMGWFRQAPGKEREFVTANSWGGDTYYADSVQGRFTFSRDNAKNTVYLQMNSLQPEDTAVYYCAAAPTSFATTAYSSSNSYAYWGQGTQVTVSS",0.046 OD450 nm,0.982 OD450 nm,0.114 s⁻¹,0.00353 s⁻¹
"FJ1427_P035MP07C05 (VHH, tested as periplasmic extract; also called Clone nr; 611) VHH: EVQLVESGGGLVQPGGSLRLSCAASGRALSRLAMGWFRQAPGKEREFVVASSWGDDTFYADSVKGRFTFSRDNAKNTVYLQMNSLQPGDTAVYYCAAAPTSFATTAYSSSNSYAYWGQGTQVTVSS",0.047 OD450 nm,0.479 OD450 nm,0.0128 s⁻¹,0.00182 s⁻¹
"FJ1427_P035MP07C06 (VHH, tested as periplasmic extract; also called Clone nr) VHH: QVQLVESGGGLVQAGGSLRLSCAASGRTLSRYAMGWFRQAPGKEREFVTANSWGGDTYYADSVQGRFTFSRDNAENTVYLQMNSLQPEDTAVYYCAAAPTSFATTAYSSSNSYAYWGQGTQVTVSS",0.045 OD450 nm,0.319 OD450 nm,0.111 s⁻¹,0.00279 s⁻¹
"FJ1427_P035MP07C09 (VHH, tested as periplasmic extract; also called Clone nr; 643) VHH: QVQLVESGGGLVQAGGSLRLSCAASGRTLSRYAMGWFRQAPGKEREYVAIDSWGGDTFYADSVEGRFTFSRDNAKNEVYLQMNSLQPEDTAVYYCAGAPTSFATTAYSSSNSYRYWGQGTQVTVSS",0.755 OD450 nm,0.723 OD450 nm,0.00703 s⁻¹,0.00137 s⁻¹
"FJ1427_P035MP07D01 (VHH, tested as periplasmic extract; also called Clone nr; 580) VHH: QVQLVESGGGLVQAGGSLRLSCAASGRTLSRYAMGWFRQAPGKEREFVAANSWGGDTYYTDSVEGRFTFSRDNAKNAVYLQMNSLQPGDTAVYYCAAAPTSFATTAYSSSNSYSYWGQGTQVTVSS",0.051 OD450 nm,1.19 OD450 nm,0.113 s⁻¹,0.00294 s⁻¹
"FJ1427_P035MP07D02 (VHH, tested as periplasmic extract; also called Clone nr; 588) VHH: QVQLQESGGGLVQAGGSLRLSCAASGRALSRLAMGWFRQAPGKEREFVVASSWGDDTFYADSVKGRFTFSRDNAKNTVYLQMNSLQPGDTAVYYCAAAPTSFATTAYSSSNSYAYWGQGTQVTVSS",0.057 OD450 nm,0.599 OD450 nm,0.0127 s⁻¹,0.00152 s⁻¹
"FJ1427_P035MP07D05 (VHH, tested as periplasmic extract; also called Clone nr) VHH: QVQLVESGGGLVQAGGSLRLSCAASGRTLSRNAMGWFRQAPGKEREFVAADSWGGDTFYADSVEGRFTFSRDNAKNAVYLQMNSLQPEDTAVYYCAGAPTSFATTAYSSSNSYRYWGQGTQVTVSS",0.054 OD450 nm,0.733 OD450 nm,0.0609 s⁻¹,0.00153 s⁻¹
"FJ1427_P035MP07D06 (VHH, tested as periplasmic extract; also called Clone nr; 620) VHH: EVQLVESGGGLVQAGGSLRLSCAASGRTLSRYAMGWFRQAPGKEREFVTANSWGGDTYYADSVQGRFTFSRDNAKNTVYLQMNSLQPEDTAVYYCAAAPTSFATTAYSSSNSYAYWGQGTQVTVSS",0.045 OD450 nm,0.919 OD450 nm,0.126 s⁻¹,0.00288 s⁻¹
"FJ1427_P035MP07D08 (VHH, tested as periplasmic extract; also called Clone nr) VHH: QLQLVESGGGLVQAGGSLRLSCAASGRTLSRYAMGWFRQAPGKEREFVTANSWGGDTYYADSVQGRFTFSRDNAKNTVYLQMNSLQPEDTAVYYCAAAPTSFATTAYSSSNSYAYWGQGTQVTVSS",0.05 OD450 nm,1.03 OD450 nm,0.0991 s⁻¹,0.00263 s⁻¹
"FJ1427_P035MP07D09 (VHH, tested as periplasmic extract; also called Clone nr) VHH: EVQLVESGGGLVQAGGSLRLSCAASGRTLSRYAMGWFRQAPGKEREFVTANSWGGDTYYADSVQGRFTFSRDNAKNTVYLQMNSLQPEDTAVYYCAAAPTSFATTAYSSSNSYAYWGQGTQVTVSS",0.045 OD450 nm,0.865 OD450 nm,0.126 s⁻¹,0.00447 s⁻¹
"FJ1427_P035MP07D10 (VHH, tested as periplasmic extract; also called Clone nr) VHH: QVQLVESGGGLVQAGGSLRLSCAASGRTLSRYAMGWFRQAPGKEREFVAADSWGGDTYYDDSVEGRFTFSRDIAKNAVYLQMNSLQPEDTAVYYCAAAPTSFATTAYSSSNSYAYWGQGTQVTVSS",0.048 OD450 nm,0.734 OD450 nm,0.125 s⁻¹,0.003 s⁻¹
"FJ1427_P035MP07E01 (VHH, tested as periplasmic extract; also called Clone nr) VHH: QVQLQESGGGLVQAGGSLRLSCAASGRTLSRYAMGWFRQAPGKEREFVACDSWGGDTFYADSVEGRFTFSRDNAKNATYLQMNSLQPEDTAVYYCAGAPTSFATTAYSSSNSYTVWGQGTQVTVSL",0.139 OD450 nm,0.83 OD450 nm,0.0132 s⁻¹,0.00156 s⁻¹
"FJ1427_P035MP07E02 (VHH, tested as periplasmic extract; also called Clone nr) VHH: QVQLVESGGGLVQAGGSLRLSCAASGRALSRLAMGWFRQAPGKEREFVVASSWGDDTFYADSVKGRFTFSRDNAKNTVYLQMNSLQPGDTAVYYCAAAPTSFATTAYSSSNSYAYWGQGTQVTVSS",0.061 OD450 nm,0.62 OD450 nm,0.0132 s⁻¹,0.00206 s⁻¹
"FJ1427_P035MP07E04 (VHH, tested as periplasmic extract; also called Clone nr; 605) VHH: QVQLVESGGGLVQAGDSLRLSCEASGRTLSRYAMGWFRQAPGKEREFVTANSWGGDTYYADSVQGRFTFSRDNAKNTVYLQMNSLQPEDTAVYYCAAAPTSFATTAYSSSNSYAYWGQGTQVTVSS",0.046 OD450 nm,0.729 OD450 nm,0.103 s⁻¹,0.00259 s⁻¹
"FJ1427_P035MP07E05 (VHH, tested as periplasmic extract; also called Clone nr) VHH: EVQLVESGGGLVQAGGSLRLSCAASGRTLSRYAMGWFRQAPGKEREFVTANSWGGDTYYADSVQGRFTFSRDNAKNTVYLQMNSLQPEDTAVYYCAAAPTSFATTAYSSSNSYAYWGQGTQVTVSS",0.045 OD450 nm,0.434 OD450 nm,0.12 s⁻¹,0.00372 s⁻¹
"FJ1427_P035MP07E08 (VHH, tested as periplasmic extract; also called Clone nr) VHH: QVQLVESGGGLVQAGGSLRLSCAASGRTLSRYAMGWFRQAPGKEREFVAADSWGGDTYYDDSVEGRFTFSRDIAKNAVYLQMNSLQPEDTAVYYCAAAPTSFATTAYSSSNSYAYWGQGTQVTVSS",0.049 OD450 nm,0.642 OD450 nm,0.13 s⁻¹,0.00229 s⁻¹
"FJ1427_P035MP07E09 (VHH, tested as periplasmic extract; also called Clone nr) VHH: QVQLQESGGGLVQAGGSLRLSCAASGRTLSRYAMGWFRQAPGKEREFVTANSWGGDTYYADSVQGRFTFSRDNAKNTVYLQMNSLQPEDTAVYYCAAAPTSFATTAYSSSNSYAYWGQGTQVTVSS",0.045 OD450 nm,0.428 OD450 nm,0.108 s⁻¹,0.0033 s⁻¹
